This is an account of results in patent US9688764B2, “Methods of treating breast cancer by administering anti-human prolactin receptor (PRLR) antibodies” (REGENERON PHARMACEUTICALS, INC., priority 2013, dated 2017).

To fix the notation:
T1: HEK293/hPRLR (Homo sapiens, UniProt P16471)
T1 construct: HA; expressed in transfected cells; host or cells: HEK293
T1 sequence (P16471 25-622): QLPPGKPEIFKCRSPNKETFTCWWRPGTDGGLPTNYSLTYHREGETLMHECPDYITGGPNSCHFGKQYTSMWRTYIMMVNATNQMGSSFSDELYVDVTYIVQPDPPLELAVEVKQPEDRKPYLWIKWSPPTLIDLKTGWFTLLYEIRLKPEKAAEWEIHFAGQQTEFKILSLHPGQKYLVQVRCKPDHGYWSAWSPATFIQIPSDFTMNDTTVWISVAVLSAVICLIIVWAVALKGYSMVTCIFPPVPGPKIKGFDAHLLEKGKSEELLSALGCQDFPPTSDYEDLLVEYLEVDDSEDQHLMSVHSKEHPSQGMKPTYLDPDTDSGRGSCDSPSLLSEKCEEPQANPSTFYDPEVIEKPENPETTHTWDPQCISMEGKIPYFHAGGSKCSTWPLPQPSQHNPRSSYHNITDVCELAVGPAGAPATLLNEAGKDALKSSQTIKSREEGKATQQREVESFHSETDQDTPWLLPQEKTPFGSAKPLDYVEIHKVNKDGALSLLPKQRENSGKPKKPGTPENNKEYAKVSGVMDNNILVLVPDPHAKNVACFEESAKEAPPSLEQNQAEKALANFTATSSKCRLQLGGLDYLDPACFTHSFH

T2: T47D (native PRLR expressing cell line) (Homo sapiens, UniProt P16471)
T2 construct: a native PRLR expressing cell line (T47D); endogenous in cells; host or cells: T47D
T2 sequence (P16471 25-622): T1 sequence (P16471 25-622)

T3: HEK293/mPRLR (Mus musculus, UniProt Q08501)
T3 construct: HA; expressed in transfected cells; host or cells: HEK293
T3 sequence (Q08501 20-608): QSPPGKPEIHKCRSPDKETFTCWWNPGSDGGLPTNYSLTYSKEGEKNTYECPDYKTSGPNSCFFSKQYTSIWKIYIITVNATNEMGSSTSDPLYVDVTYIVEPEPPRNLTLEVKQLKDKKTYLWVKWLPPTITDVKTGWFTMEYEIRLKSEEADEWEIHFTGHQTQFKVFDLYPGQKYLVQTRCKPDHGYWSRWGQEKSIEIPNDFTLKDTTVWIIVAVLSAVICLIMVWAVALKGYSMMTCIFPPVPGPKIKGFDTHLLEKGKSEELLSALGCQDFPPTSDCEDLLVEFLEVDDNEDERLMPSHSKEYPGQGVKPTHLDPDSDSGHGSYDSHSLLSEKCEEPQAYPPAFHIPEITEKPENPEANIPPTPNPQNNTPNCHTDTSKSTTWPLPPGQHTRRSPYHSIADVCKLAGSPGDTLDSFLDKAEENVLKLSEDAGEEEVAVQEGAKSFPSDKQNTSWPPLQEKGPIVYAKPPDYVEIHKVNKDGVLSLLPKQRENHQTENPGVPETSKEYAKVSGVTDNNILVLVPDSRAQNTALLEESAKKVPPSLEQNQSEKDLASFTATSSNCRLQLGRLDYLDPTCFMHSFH

B1: H1H6781P: anti-PRLR antibody, human IgG1 Fc; HCVR/LCVR SEQ ID NOs 50/58 (antibody, V domains shown)
VH: EVQLVESGGDLVQPGESLRLSCTASGFTFNSYEMNWVRQAPGKGLEWVSYISSSGGTKYYVDSVKGRFTISRDNAKKSLYLQMNSLRADDTALYYCARLNGVDVFDIWGQGTMVTVSS
VL: DIQMTQSPSSLSASVGDRVTITCRASQDIFNYLAWFQQKPGKVPELLISAASTLQSGVPSRFSGSGSGTYFTLTISSLQPEDIATYYCQRYNSAPLTFGGGTKVEIK
modifications: human IgG1 Fc
B2: H1H6785P: anti-PRLR antibody, human IgG1 Fc; HCVR/LCVR SEQ ID NOs 98/106 (antibody, V domains shown)
VH: EVQLVESGGGLVQPGGSLRLSCAASGFTFSSYEMNWVRQAPGKGLEWISYISSRGGTIYYADSIKGRFTIYRDNARNSLYLQMNSLRAEDTAIYYCARLSGVDIFDIWGQGTMVTVSS
VL: B1 VL with D28G, F30S, F36Y, E45K, S49Y, A50F, S65G, Y70D, I83V
modifications: human IgG1 Fc
B3: H1H6792P: anti-PRLR antibody, human IgG1 Fc; HCVR/LCVR SEQ ID NOs 130/138 (antibody, V domains shown)
VH: EVQLVESGGGLVQPGRSLRLSCAASGFTLDDHAVHWVRQAPGKGLEWVSGISWNSVYIDYADSVKGRFTIFRDNAKNSLYLQMNSLRAEDTAFYYCARDIEGARDYWGQGTLVTVSS
VL: DIQMTQSPSSLSASVGDRVTITCRASQGIRNDLGWYQQKPGKAPKRLIYAASSLQSGVPSRFSGSGYGTEFTLTISSLQPEDFAPYYCLQHNSYPLTFGGGTKVEIK
modifications: human IgG1 Fc
B4: H1H6790P: anti-PRLR antibody, human IgG1 Fc; HCVR/LCVR SEQ ID NOs 114/122 (antibody, V domains shown)
VH: EVQLVESGGGLVQPGGSLRLSCAASGFTFSSYAMTWVRQAPGKGLEWVSAITGSVGNTYYADSVKGRFTISRDNSKNTLYLQMNSLGAEDTAEYYCAKGAGMTTNWYLDLWGRGTLVTVSS
VL: DIVMTQSPDSLAVSLGARATINCKSSQSVLYSSNNQNYLTWYQQKPGQPPKLLIKWASTRESGVPDRFSGSGSGTDFTLTISSLQAEDVAVYYCQQYASSPYTFGQGTKLEIK
modifications: human IgG1 Fc
B5: H1H6782P: anti-PRLR antibody, human IgG1 Fc; HCVR/LCVR SEQ ID NOs 66/74; non-blocking (antibody, V domains shown)
VH: EVQLVESGGGLVQPGRSLRLSCAASGFTFDDYAMHWVRQAPGKGLEWVSGIIWNSGHIGYGDSVKGRFTISRDNAKKSLYLQMNSLRAEDTALYYCARDSGRYQSYFDYWGQGTLVTVSS
VL: DIQMTQSPSTLSASVGDRVTITCRASHIISSWLAWYQQKPGKAPKVLIFKASSLESGVPSRFSGSGSGTEFTLTISSLQPDDFATYYCQQYNTYSRTFGQGTKVEIK
modifications: human IgG1 Fc

Residue numbers refer to the chain shown, from its start.

mfPRLR.mmh (monomeric macaca fascicularis PRLR), sequence (as listed by the source): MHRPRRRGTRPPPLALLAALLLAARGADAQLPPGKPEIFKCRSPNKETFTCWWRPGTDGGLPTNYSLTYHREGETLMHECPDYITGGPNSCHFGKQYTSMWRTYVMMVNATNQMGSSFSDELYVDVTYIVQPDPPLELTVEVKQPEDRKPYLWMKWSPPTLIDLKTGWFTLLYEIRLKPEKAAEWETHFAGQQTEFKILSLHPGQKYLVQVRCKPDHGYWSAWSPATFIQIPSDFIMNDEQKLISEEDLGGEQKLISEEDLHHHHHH

For the first experiment, the target named is T1, HEK293/hPRLR. As to the kind of experiment: FACS cell surface binding.
Conditions: not given
The procedure: (§1) The ability of anti-PRLR antibodies to selectively bind PRLR expressing cell lines was next determined. Human, monkey macaca fascicularis, and mouse PRLR constructs with an HA tag were stably introduced into HEK293 cells via Lipofectamine 2000-mediated transfection methodology. Transfectants (HEK293/hPRLR, HEK293/mfPRLR and HEK293/mPRLR) were selected for at least 2 weeks in complete growth media plus G418.
(§2) Cell surface expression of PRLR on 293/hPRLR cells was assessed via FACS analysis. Briefly, 1×10^5 cells were incubated with 10 μg/ml of Control antibody I, or an isotype control for 30 min on ice in antibody dilution buffer. Following two washes with antibody dilution buffer, cells were incubated with 10 μg/ml of PE conjugated anti-human secondary antibodies for 30 min on ice. Following two additional washes, samples were run on a Hypercyt® cytometer and analyzed in FORECYT™ (IntelliCyt, Albuquerque, N. Mex.). The mean fluorescence intensities (MFI) were expressed as fold change above isotype control levels (background). FACS binding confirmed that Control I selectively bound to 293/hPRLR expressing cells with MFIs that were 30 fold above background (isotype ctrl) levels and less than 2 fold binding on parental cells.
(§3) Next, the anti-PRLR antibodies of the present invention were tested via FACS for selective binding to the engineered overexpressing PRLR HEK293 cell lines, as well as to non-expressing HEK293 cells and a native PRLR expressing cell line (T47D).
As to B1, the “FACS Cell Binding (Fold Above Background)” value is reported as 37 Fold Above Background.
The same measure, in the same setting: to B2 belongs 37 Fold Above Background.
Turning to B3, the “FACS Cell Binding (Fold Above Background)” value is on record as 37 Fold Above Background.
On the same count and under the same terms, to B4 belongs 37 Fold Above Background; to B5, 41 Fold Above Background.

The target in another experiment is T2, T47D (native PRLR expressing cell line). As to the kind of experiment: FACS cell surface binding.
Conditions: not given
The procedure:
as §1, §2, §3
For the molecule B1, the “FACS Cell Binding (Fold Above Background)” value turned out to be 40 Fold Above Background.
The same measure, in the same setting: to B2 belongs 40 Fold Above Background; to B3, 37 Fold Above Background; to B4, 34 Fold Above Background.
The same measure, in the same setting: the figure for B5 is 43 Fold Above Background.

In another experiment the target is T3, HEK293/mPRLR. As to the kind of experiment: FACS cell surface binding.
Conditions: not given
The procedure:
as §1, §2, §3
As for B1, the “FACS Cell Binding (Fold Above Background)” value came to 1 Fold Above Background.
Still for that read-out and setting: to B2 belongs 2 Fold Above Background.
In the case of B3, the “FACS Cell Binding (Fold Above Background)” value is on record as 3 Fold Above Background.
Same read-out and setting: the figure for B4 is 1 Fold Above Background; for B5 it is 4 Fold Above Background.

A further experiment concerns HEK293 (non-expressing parental cells). Description: FACS cell surface binding.
Conditions: not given
The procedure: as §1, §2, §3
As to B1, the “FACS Cell Binding (Fold Above Background)” value is on record as 1 Fold Above Background.
Still for that read-out and setting: to B2 belongs 1 Fold Above Background; to B3, 1 Fold Above Background; to B4, 1 Fold Above Background.
Still for that read-out and setting: to B5 belongs 3 Fold Above Background.

The target of the next experiment is T4, hPRLR.mFc (soluble dimeric human PRLR) (Homo sapiens, UniProt P16471).
T4 construct: dimeric (hPRLR.mFc)
T4 sequence (P16471 with tags, fused parts or gaps): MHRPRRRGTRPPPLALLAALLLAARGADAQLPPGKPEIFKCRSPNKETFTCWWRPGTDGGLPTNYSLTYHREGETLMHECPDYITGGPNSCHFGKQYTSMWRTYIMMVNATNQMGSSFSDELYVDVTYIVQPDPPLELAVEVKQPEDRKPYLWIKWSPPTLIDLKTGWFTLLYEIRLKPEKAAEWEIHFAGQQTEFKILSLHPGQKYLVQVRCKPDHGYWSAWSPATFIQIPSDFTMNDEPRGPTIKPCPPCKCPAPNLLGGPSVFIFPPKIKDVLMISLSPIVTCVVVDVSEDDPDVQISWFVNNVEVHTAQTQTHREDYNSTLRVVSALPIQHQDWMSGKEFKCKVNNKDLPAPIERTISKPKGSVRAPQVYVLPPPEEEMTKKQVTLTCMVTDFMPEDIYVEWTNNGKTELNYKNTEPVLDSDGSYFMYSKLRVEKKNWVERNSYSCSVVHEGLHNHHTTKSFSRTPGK
Description: Surface plasmon resonance (Biacore T200), mAb-capture format. It counts as binding. Particulars: 25° C., antibody-capture format, analyte hPRLR.mFc. In a few lines:
(§4)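 Rate constants ka and kd were obtained by fitting sensorgrams to a 1:1 model. Test mAbs, as human IgG1 Fc forms, sat on an anti-human Fc surface while soluble PRLR ectodomain protein passed over it, either monomeric (human or cynomolgus .mmh) or dimeric (human mFc fusion).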
(SPR reads the build-up and loss of mass on a sensor chip optically.)
B1: binding was put at a Kd of 0.236 nM and the T½ stood at 3.18 h.
On the same counts, the results for B2 are 0.231 nM and 3.17 h.
On the same counts, the results for B3 are 0.313 nM and 2.03 h.
Turning to B4, the Kd turned out to be 0.192 nM and the T½ is 1.85 h.
The molecule B5 had a dissociation constant (Kd) of 0.225 nM and a T½ of 2.7 h.

The experiment is the same for the next values; noted with them: 37° C., antibody-capture format, analyte hPRLR.mFc.
In turn, B1 displayed a Kd of 0.226 nM and a T½ of 1.95 h.
For B2, in that order: 0.256 nM and 1.65 h.
As for B3, the dissociation constant (Kd) came out at 0.352 nM and the T½ turned out to be 1.1 h.
On the same counts, the results for B4 are 0.306 nM and 0.967 h.
With B5, binding was put at a Kd of 0.217 nM and the T½ is 1.48 h.

The next experiment concerns the target mfPRLR.mmh (monomeric macaca fascicularis PRLR). The description is as above. Type of experiment: binding. Particulars: 25° C., antibody-capture format, analyte mfPRLR.mmh. Put shortly: as §4
B1: the dissociation constant Kd was found to be 0.986 nM and the T½ stood at 1.37 h.
For B2, in that order: 0.738 nM and 1.15 h.
Regarding B3, the dissociation constant (Kd) was determined as 4.17 nM and the T½ came to 0.2 h.
In turn, B4 registered a dissociation constant Kd of 2.04 nM and a T½ of 0.25 h.
Molecule B5 yielded a Kd of 1.05 nM and a T½ of 0.683 h.

The experiment is the same for the next values; noted with them: 37° C., antibody-capture format, analyte mfPRLR.mmh.
B1: the affinity, expressed as Kd, was 1.08 nM and the T½ is 0.717 h.
In turn, B2 returned a Kd of 1.52 nM and a T½ of 0.433 h.
On the same counts, the results for B3 are 9.37 nM and 0.067 h.
On the same counts, the results for B4 are 5.22 nM and 0.067 h.
For B5, in that order: 1.99 nM and 0.25 h.

As usually defined, the Kd is the constant that tells how readily two partners part at equilibrium.
